Target: SARS-CoV-2 spike receptor-binding domain (RBD), amino acids 333 to 529, bacteria-expressed and refolded (SARS-CoV-2, wild type (parental), UniProt P0DTC2)
Test: SPR
Details: both partners purified

B1: Sybody Sb68 (VHH)
VHH: QVQLVESGGGSVQAGGSLRLSCAASGSISSITYLGWFRQAPGKEREGVAALITVNGHTYYADSVKGRFTVSLDNAKNTVYLQMNSLKPEDTALYYCAAAAWGYAWPLHQDDYWYWGQGTQVTVSA
Kd: 63 nM

— article PMC8219104 (Research Square, 2021)
